This note sets out measurements from IntAct's records for PubMed 32101751.

B1: Ubiquitin carboxyl-terminal hydrolase 15 (Homo sapiens), Q9Y4E8 (parent)
chain: MAEGGAADLDTQRSDIATLLKTSLRKGDTWYLVDSRWFKQWKKYVGFDSWDKYQMGDQNVYPGPIDNSGLLKDGDAQSLKEHLIDELDYILLPTEGWNKLVSWYTLMEGQEPIARKVVEQGMFVKHCKVEVYLTELKLCENGNMNNVVTRRFSKADTIDTIEKEIRKIFSIPDEKETRLWNKYMSNTFEPLNKPDSTIQDAGLYQGQVLVIEQKNEDGTWPRGPSTPKSPGASNFSTLPKISPSSLSNNYNNMNNRNVKNSNYCLPSYTAYKNYDYSEPGRNNEQPGLCGLSNLGNTCFMNSAIQCLSNTPPLTEYFLNDKYQEELNFDNPLGMRGEIAKSYAELIKQMWSGKFSYVTPRAFKTQVGRFAPQFSGYQQQDCQELLAFLLDGLHEDLNRIRKKPYIQLKDADGRPDKVVAEEAWENHLKRNDSIIVDIFHGLFKSTLVCPECAKISVTFDPFCYLTLPLPMKKERTLEVYLVRMDPLTKPMQYKVVVPKIGNILDLCTALSALSGIPADKMIVTDIYNHRFHRIFAMDENLSSIMERDDIYVFEININRTEDTEHVIIPVCLREKFRHSSYTHHTGSSLFGQPFLMAVPRNNTEDKLYNLLLLRMCRYVKISTETEETEGSLHCCKDQNINGNGPNGIHEEGSPSEMETDEPDDESSQDQELPSENENSQSEDSVGGDNDSENGLCTEDTCKGQLTGHKKRLFTFQFNNLGNTDINYIKDDTRHIRFDDRQLRLDERSFLALDWDPDLKKRYFDENAAEDFEKHESVEYKPPKKPFVKLKDCIELFTTKEKLGAEDPWYCPNCKEHQQATKKLDLWSLPPVLVVHLKRFSYSRYMRDKLDTLVDFPINDLDMSEFLINPNAGPCRYNLIAVSNHYGGMGGGHYTAFAKNKDDGKWYYFDDSSVSTASEDQIVSKAAYVLFYQRQDTFSGTGFFPLDRETKGASAATGIPLESDEDSNDNDNDIENENCMHTN
partner: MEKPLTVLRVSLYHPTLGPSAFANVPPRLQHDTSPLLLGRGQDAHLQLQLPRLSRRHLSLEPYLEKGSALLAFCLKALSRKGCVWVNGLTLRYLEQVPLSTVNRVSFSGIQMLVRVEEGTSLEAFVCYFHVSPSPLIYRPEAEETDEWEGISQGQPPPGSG

Variants of B1 are the subject of the assay. The following applies: with tifab_human TIFAB.
Take C298A: the “effect of a mutation on the interaction” value is “decreasing interaction strength”.
